Experimental data from US20160122421A1 (IPIERIAN, published 2016).

B1: humanized IPN002 variant VH2/Vk2 (antibody, V domains shown)
VH: EVHLVESGGALVKPGGSLRLSCAASGFSFSKYGMSWVRQAPGKGLEWVATISSSGSRTYYPDSVKGRFTISRDNAKNTLYLQMNSLRAEDTAMYYCSISWDGAMDYWGQGTTVTVSS
VL: DVVMTQSPLSLPVTLGQPASISCKSSQSIVHSNGNTYLEWYLQKPGQSPQLLVYKVSNRFSGVPDRFSGSGSGTDFTLKISRVEAEDVGTYYCFQGSLVPWAFGGGTKVEIK
B2: IPN002 (antibody, V domains shown)
VH: EVHLVESGGALVKPGGSLKLSCAASGFSFSKYGMSWVRQTPDKRLEWVATISSSGSRTYYPDSVKGQFTISRDNAKNTLYLQMSSLKSEDTAMYYCSISWDGAMDYWGQGTSVTVSS
VL: DVLMTQTPLSLPVSLGDQASISCKSSQSIVHSNGNTYLEWYLQKPGQSPKLLVYKVSNRFSGVPDRFSGSGSGTDFTLKISRVEAEDLGTYYCFQGSLVPWAFGGGTKLEIK
notes: It is the murine parental antibody; also called IPN2; IPN-2
B3: VH1/Vk4 (antibody, V domains shown)
VH: EVHLVESGGALVKPGGSLRLSCAASGFSFSKYGMSWVRQAPGKGLEWVATISSSGSRTYYPDSVKGRFTISRDNAKNTLYLQMSSLKSEDTAMYYCSISWDGAMDYWGQGTSVTVSS
VL: DVVMTQSPLSLPVTLGQPASISCKSSQSIVHSNGNTYLEWYLQKPGQSPQLLIYKVSNRFSGVPDRFSGSGSGTDFTLKISRVEAEDVGVYYCFQGSLVPWAFGGGTKVEIK
notes: member of the group m7; also called humanized IPN002 variant VH1/Vk4
B4: VH1/Vk1 (antibody, V domains shown)
VH: EVHLVESGGALVKPGGSLRLSCAASGFSFSKYGMSWVRQAPGKGLEWVATISSSGSRTYYPDSVKGRFTISRDNAKNTLYLQMSSLKSEDTAMYYCSISWDGAMDYWGQGTSVTVSS
VL: DVLMTQSPLSLPVTLGQPASISCKSSQSIVHSNGNTYLEWYLQKPGQSPQLLVYKVSNRFSGVPDRFSGSGSGTDFTLKISRVEAEDVGTYYCFQGSLVPWAFGGGTKVEIK
notes: member of the group m7; also called humanized IPN002 variant VH1/Vk1
B5: VH2/Vk4 (antibody, V domains shown)
VH: EVHLVESGGALVKPGGSLRLSCAASGFSFSKYGMSWVRQAPGKGLEWVATISSSGSRTYYPDSVKGRFTISRDNAKNTLYLQMNSLRAEDTAMYYCSISWDGAMDYWGQGTTVTVSS
VL: DVVMTQSPLSLPVTLGQPASISCKSSQSIVHSNGNTYLEWYLQKPGQSPQLLIYKVSNRFSGVPDRFSGSGSGTDFTLKISRVEAEDVGVYYCFQGSLVPWAFGGGTKVEIK
notes: member of the group m7; also called humanized IPN002 variant VH2/Vk4
B6: VH1/Vk2 (antibody, V domains shown)
VH: EVHLVESGGALVKPGGSLRLSCAASGFSFSKYGMSWVRQAPGKGLEWVATISSSGSRTYYPDSVKGRFTISRDNAKNTLYLQMSSLKSEDTAMYYCSISWDGAMDYWGQGTSVTVSS
VL: DVVMTQSPLSLPVTLGQPASISCKSSQSIVHSNGNTYLEWYLQKPGQSPQLLVYKVSNRFSGVPDRFSGSGSGTDFTLKISRVEAEDVGTYYCFQGSLVPWAFGGGTKVEIK
notes: member of the group m7; also called humanized IPN002 variant VH1/Vk2
B7: VH1/Vk3 (antibody, V domains shown)
VH: EVHLVESGGALVKPGGSLRLSCAASGFSFSKYGMSWVRQAPGKGLEWVATISSSGSRTYYPDSVKGRFTISRDNAKNTLYLQMSSLKSEDTAMYYCSISWDGAMDYWGQGTSVTVSS
VL: DVVMTQSPLSLPVTLGQPASISCKSSQSIVHSNGNTYLEWYLQKPGQSPQLLVYKVSNRFSGVPDRFSGSGSGTDFTLKISRVEAEDVGVYYCFQGSLVPWAFGGGTKVEIK
notes: member of the group m7; also called humanized IPN002 variant VH1/Vk3
B8: VH3/Vk3 (antibody, V domains shown)
VH: EVQLVESGGALVKPGGSLRLSCAASGFSFSKYGMSWVRQAPGKGLEWVATISSSGSRTYYPDSVKGRFTISRDNAKNTLYLQMNSLRAEDTAMYYCSISWDGAMDYWGQGTTVTVSS
VL: DVVMTQSPLSLPVTLGQPASISCKSSQSIVHSNGNTYLEWYLQKPGQSPQLLVYKVSNRFSGVPDRFSGSGSGTDFTLKISRVEAEDVGVYYCFQGSLVPWAFGGGTKVEIK
notes: member of the group m7; also called humanized IPN002 variant VH3/Vk3
B9: VH3/Vk2 (antibody, V domains shown)
VH: EVQLVESGGALVKPGGSLRLSCAASGFSFSKYGMSWVRQAPGKGLEWVATISSSGSRTYYPDSVKGRFTISRDNAKNTLYLQMNSLRAEDTAMYYCSISWDGAMDYWGQGTTVTVSS
VL: DVVMTQSPLSLPVTLGQPASISCKSSQSIVHSNGNTYLEWYLQKPGQSPQLLVYKVSNRFSGVPDRFSGSGSGTDFTLKISRVEAEDVGTYYCFQGSLVPWAFGGGTKVEIK
notes: member of the group m7; also called humanized IPN002 variant VH3/Vk2
B10: VH3/Vk4 (antibody, V domains shown)
VH: EVQLVESGGALVKPGGSLRLSCAASGFSFSKYGMSWVRQAPGKGLEWVATISSSGSRTYYPDSVKGRFTISRDNAKNTLYLQMNSLRAEDTAMYYCSISWDGAMDYWGQGTTVTVSS
VL: DVVMTQSPLSLPVTLGQPASISCKSSQSIVHSNGNTYLEWYLQKPGQSPQLLIYKVSNRFSGVPDRFSGSGSGTDFTLKISRVEAEDVGVYYCFQGSLVPWAFGGGTKVEIK
notes: member of the group m7; also called humanized IPN002 variant VH3/Vk4
B11: humanized IPN002 variant VH2/Vk1 (antibody, V domains shown)
VH: EVHLVESGGALVKPGGSLRLSCAASGFSFSKYGMSWVRQAPGKGLEWVATISSSGSRTYYPDSVKGRFTISRDNAKNTLYLQMNSLRAEDTAMYYCSISWDGAMDYWGQGTTVTVSS
VL: DVLMTQSPLSLPVTLGQPASISCKSSQSIVHSNGNTYLEWYLQKPGQSPQLLVYKVSNRFSGVPDRFSGSGSGTDFTLKISRVEAEDVGTYYCFQGSLVPWAFGGGTKVEIK
B12: VH3/Vk1 (antibody, V domains shown)
VH: EVQLVESGGALVKPGGSLRLSCAASGFSFSKYGMSWVRQAPGKGLEWVATISSSGSRTYYPDSVKGRFTISRDNAKNTLYLQMNSLRAEDTAMYYCSISWDGAMDYWGQGTTVTVSS
VL: DVLMTQSPLSLPVTLGQPASISCKSSQSIVHSNGNTYLEWYLQKPGQSPQLLVYKVSNRFSGVPDRFSGSGSGTDFTLKISRVEAEDVGTYYCFQGSLVPWAFGGGTKVEIK
notes: member of the group m7; also called humanized IPN002 variant VH3/Vk1

What was measured:
eTau-4 peptide = molecular target: T1, eTau-4 peptide; experiment: relative binding affinity, method not named (Table 4); sixth column, headed eTau 4
T1 construct: also called synthetic eTau4 polypeptide
T1 peptide: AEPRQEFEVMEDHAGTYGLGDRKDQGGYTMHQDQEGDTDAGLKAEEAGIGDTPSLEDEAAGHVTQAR

[1] = molecular target: T2, 383 amino acid recombinant tau (UniProt P10636-6 1-383, biotinylated where printed as biotin-rTau383 (position not given)); experiment: Octet
T2 construct: also called rTau383

[2] = molecular target: eTau1a (amino acids 2-166 of fetal tau) (Homo sapiens (Human), UniProt P10636 2-541); experiment: relative binding affinity, method not named (Table 4)
[3] = molecular target: T2, 383 amino acid recombinant tau; experiment: as above
eTau 2 = molecular target: T3, eTau 2; experiment: as above
T3 construct: member of the group m9
T3 polypeptide: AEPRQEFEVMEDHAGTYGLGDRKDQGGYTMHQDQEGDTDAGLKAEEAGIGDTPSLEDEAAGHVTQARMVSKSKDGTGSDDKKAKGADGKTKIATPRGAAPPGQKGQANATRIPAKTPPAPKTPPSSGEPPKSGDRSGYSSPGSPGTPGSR

eTau 1b = molecular target: T4, eTau 1b; experiment: as above
T4 construct: member of the group m9
T4 polypeptide: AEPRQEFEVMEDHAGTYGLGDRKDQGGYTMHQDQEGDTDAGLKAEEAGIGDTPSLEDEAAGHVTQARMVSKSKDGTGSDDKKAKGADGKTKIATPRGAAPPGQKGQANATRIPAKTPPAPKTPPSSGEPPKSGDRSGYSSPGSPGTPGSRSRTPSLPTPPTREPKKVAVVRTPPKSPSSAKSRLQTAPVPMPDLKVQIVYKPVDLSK

[4] = molecular target: eTau 4 (FIG. 17); experiment: relative binding affinity, method not named (Table 4); fifth column, headed eTau 4

T2 sequence (P10636 other isoform, or with tags, fused parts or gaps limits assumed): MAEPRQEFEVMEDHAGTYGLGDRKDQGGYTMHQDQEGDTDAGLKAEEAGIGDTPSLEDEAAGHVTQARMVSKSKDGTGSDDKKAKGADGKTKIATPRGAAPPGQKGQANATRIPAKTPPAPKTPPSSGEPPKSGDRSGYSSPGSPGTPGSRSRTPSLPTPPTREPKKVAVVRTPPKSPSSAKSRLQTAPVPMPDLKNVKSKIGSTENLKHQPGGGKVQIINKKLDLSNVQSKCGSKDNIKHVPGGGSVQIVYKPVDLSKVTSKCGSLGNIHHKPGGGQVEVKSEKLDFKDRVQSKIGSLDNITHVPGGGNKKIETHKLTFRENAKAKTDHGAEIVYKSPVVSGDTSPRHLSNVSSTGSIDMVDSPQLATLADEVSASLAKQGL

Row | Binder | Kd (eTau-4 peptide) [nM] | Kd [1] [nM] | koff [1] [s⁻¹] | kon [1] [M⁻¹ s⁻¹] | Kd [2] [nM] | Kd [3] [nM] | Kd (eTau 2) [nM] | Kd (eTau 1b) [nM] | Kd [4] [nM]
1 | B1 | 0.394 | 0.232 | 4.75e-05 | 205000 | 0.327 | 0.199 | 0.283 | 0.229 | 0.294
2 | B2 |  | 0.206 | 4.78e-05 | 233000 |  |  |  |  | 
3 | B3 | 0.869 | 0.571 | 9.52e-05 | 167000 | 0.252 | 0.286 | 0.427 | 0.597 | 0.269
4 | B4 | 0.577 | 0.0426 | 8.75e-06 | 206000 | 0.294 | 0.183 | 0.465 | 0.737 | 0.358
5 | B5 | 0.671 | 1.66 | 0.000236 | 142000 | 0.343 | 0.248 | 0.354 | 0.52 | 0.418
6 | B6 | 0.633 | 0.446 | 8.74e-05 | 196000 | 0.212 | 0.121 | 0.361 | 0.558 | 0.321
7 | B7 | 0.761 | 1.28 | 0.000233 | 182000 | 0.291 | 0.175 | 0.444 | 0.59 | 0.478
8 | B8 | 0.665 | 0.169 | 3.15e-05 | 187000 | 0.22 | 0.224 | 0.471 | 0.689 | 0.469
9 | B9 | 0.701 | 0.577 | 0.000107 | 185000 | 0.282 | 0.258 | 0.408 | 0.614 | 0.589
10 | B10 | 0.586 | 0.475 | 0.0001 | 211000 | 0.216 | 0.255 | 0.447 | 0.382 | 0.381
11 | B11 | 0.321 |  |  |  | 0.281 | 0.242 | 0.225 | 0.215 | 0.369
12 | B12 | 0.921 | 1.99 | 0.000257 | 129000 | 0.241 | 0.236 | 0.705 | 0.529 | 0.454
